Measured values reported in patent US20240368301A1 (HANGZHOU JIUYUAN GENE ENGINEERING, published 2024).
Changes are numbered by the printed parent chain.

T1: cynomolgus macaques SIRPα-his (ACRO, Cat #SIA-C52H7) (cynomolgus macaque, UniProt A0A2K5VYQ9 31-369)
T1 construct: also called Monkey SIRPα; cynomolgus macaque SIRPα
T1 sequence: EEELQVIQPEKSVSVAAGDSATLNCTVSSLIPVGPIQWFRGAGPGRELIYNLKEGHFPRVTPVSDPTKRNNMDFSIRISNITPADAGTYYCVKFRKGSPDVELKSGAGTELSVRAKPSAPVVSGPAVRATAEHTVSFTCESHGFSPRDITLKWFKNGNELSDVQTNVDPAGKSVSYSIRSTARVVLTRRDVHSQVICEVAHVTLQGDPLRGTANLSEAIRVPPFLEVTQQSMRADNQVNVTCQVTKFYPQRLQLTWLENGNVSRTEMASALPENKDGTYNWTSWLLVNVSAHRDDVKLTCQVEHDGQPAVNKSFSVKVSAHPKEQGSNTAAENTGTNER

B1: H7L4-G1 (antibody, human IgG1, kappa)
heavy: not shown
light: DIVLTQSPASLAVSPGQRATITCRASESVDSYGNSFMHWYQQKPGQPPKPLIYLASNLESGVPARFSGSGSGTDFTLTINPVEANDAANYYCQQNNEYPWTFGGGTKVEIKRTVAAPSVFIFPPSDEQLKSGTASVVCLLNNFYPREAKVQWKVDNALQSGNSQESVTEQDSKDSTYSLSSTLTLSKADYEKHKVYACEVTHQGLSSPVTKSFNRGEC
notes: Humanized antibody with wild type human IgG1 and kappa; also called H7L4-G1w
B2: H7L4-G1lala (antibody, human IgG1, kappa, L234A L235A)
heavy: not shown
light: B1 light
notes: also called humanized antibody H7L4
B3: BI 765063 (antibody, V domains shown)
VH: EVQLVQSGAEVKKPGESLRISCKASGYSFTSYWVHWVRQMPGKGLEWMGNIDPSDSDTHYSPSFQGHVTLSVDKSISTAYLQLSSLKASDTAMYYCVRGGTGTLAYFAYWGQGTLVTVSS
VL: DVVMTQSPLSLPVTLGQPASISCRSSQSLVHSYGNTYLYWFQQRPGQSPRLLIYRVSNRFSGVPDRFSGSGSGTDFTLKISRVEAEDVGVYYCFQGTHVPYTFGGGTKVEIKR
B4: Z6 (antibody, IgG1, V domains shown)
VH: QVQLQESGPGLVKPSQTLSLTCTVSGFSLTGYGVNWIRQPPGKGLEWIGIIWGDGSTDYNSALKSRVTISKDTSKNQVFLKLSSVTAADTAVYYCARAGKMDYWGQGTTVTVSS
VL: DIVLTQSPASLAVSPGQRATITCRASESVDSYGNSFMHWYQQKPGQPPKPLIYLASNLESGVPARFSGSGSRTDFTLTINPVEANDAANYYCQQNNEYPWTFGGGTKVEIK
notes: also called humanized variant Z6
B5: Z1 (antibody, IgG1, V domains shown)
VH: B4 VH with K71V
VL: B4 VL with R72G
notes: also called humanized variant Z1
B6: Z9 (antibody, IgG1, V domains shown)
VH: B4 VH with A88D, V92R
VL: B4 VL
notes: also called humanized variant Z9
B7: Z8 (antibody, IgG1, V domains shown)
VH: B4 VH with A88D, V92R
VL: B4 VL with P50L
notes: also called humanized variant Z8
B8: Z3 (antibody, IgG1, V domains shown)
VH: B4 VH with K71V
VL: B4 VL
notes: also called humanized variant Z3
B9: Z7 (antibody, IgG1, V domains shown)
VH: B4 VH with A88D, V92R
VL: B4 VL with R72G
notes: also called humanized variant Z7
B10: Z5 (antibody, IgG1, V domains shown)
VH: B4 VH
VL: B4 VL with P50L
notes: also called humanized variant Z5
B11: Z4 (antibody, IgG1, V domains shown)
VH: B4 VH
VL: B4 VL with R72G
notes: also called humanized variant Z4

Molecular target: T2, SIRPα-V8 on stably transfected cells (Homo sapiens (Human), UniProt P78324 31-504)
T2 construct: also called CHOZN-SIRPα-V8; 293T-SIRPα-V8
Assay: competition FACS: 293T-SIRPα-V8 cells, antibody titrated against CD47-FITC, % of blocking (panel SIRPα-V8-CD47)
Protocol: (§1) After washing, cells were analyzed by utilizing FlowJo V10 and GraphPad Prism6 software.

Row | IC50 (read off the curve) | Binder
1 | ~10 nM | B1
2 | ~7 nM | B2

Molecular target: T3, SIRPα V1-his (ACRO, Cat #SIA-H5225) (human, UniProt P78324 31-370)
T3 construct: not shown: His tag
Assay: competition ELISA: coated SIRPα-V1-his, antibody titrated against biotin-CD47, streptavidin-HRP (panel SIRPα-V1-CD47)
Protocol: 100 μL of 1 μg/mL of recombinant SIRPα-V1-his and SIRPα-V2-his were coated overnight at 4° C. in Maxisorp ELISA 96-well plates. […] After washing, each well was added with 0.2 μg Streptavidin-HRP, substrate TMB, and read by an enzyme marker.

Row | IC50 (read off the curve) | Binder
3 | ~4 nM | B3
4 | ~3 nM | B1
5 | ~3 nM | B2

Molecular target: T4, SIRPγ on cells (Jurkat cells) (UniProt Q9P1W8 29-387)
T4 construct: whole, on cells
Assay: FACS titration on SIRPγ-carrying cells, goat anti-hIgG-AF488 (panel SIRPγ)

Row | binding result | Binder
6 | binds | B1
7 | binds | B2

Molecular target: T3, SIRPα V1-his (ACRO, Cat #SIA-H5225)
Assay: SPR (Biacore), antibody captured by anti-Fc on CM5, 50 nM SIRPα V1-his injected, 1:1 model
Protocol: Using the Biacore analysis system, activators were prepared by mixing 400 mM EDC and 100 mM NHS and activated with a CM5 sensor chip at a flow rate of 10 μL/min for 420 s. Anti-Fc antibody at 30 μg/mL dissolved in 10 mM NaAc (pH 4.5) was injected into the channel at a flow rate of 10 μL/min and then closed with 1 M ethanolamine-HCl at a flow rate of 10 μL/min for 420 s. […] All experimental data were fitted using a 1:1 binding model.

Row | Kd | koff | kon | Binder
8 | 2.34 nM | 0.00165 s⁻¹ | 708000 M⁻¹ s⁻¹ | B4
9 | 3.61 nM | 0.00269 s⁻¹ | 744000 M⁻¹ s⁻¹ | B5
10 | 2.27 nM | 0.0016 s⁻¹ | 708000 M⁻¹ s⁻¹ | B6
11 | 25.3 nM | 0.0194 s⁻¹ | 768000 M⁻¹ s⁻¹ | B7
12 | 4.17 nM | 0.00292 s⁻¹ | 699000 M⁻¹ s⁻¹ | B8
13 | 2.01 nM | 0.00151 s⁻¹ | 754000 M⁻¹ s⁻¹ | B9
14 | 27.8 nM | 0.0208 s⁻¹ | 747000 M⁻¹ s⁻¹ | B10
15 | 1.98 nM | 0.00154 s⁻¹ | 775000 M⁻¹ s⁻¹ | B11

Molecular target: T5, SIRPα-V1 on 293T-SIRPα-V1 cells (human, UniProt P78324 31-504)
T5 construct: Stably transfected cell line
Assay: competition FACS: 293T-SIRPα-V1 cells, antibody titrated against CD47-FITC, % of blocking (panel SIRPα-V1-CD47)
Protocol: as §1

Row | IC50 (read off the curve) | Binder
16 | ~0.3 nM | B3
17 | ~0.2 nM | B1
18 | ~0.1 nM | B2

Molecular target: T3, SIRPα V1-his (ACRO, Cat #SIA-H5225)
Assay: ELISA: coated SIRPα-V1-his, antibody titrated, goat anti-hIgG Fc HRP (panel SIRPα-V1)
Protocol: (§2) 100 μL of 1 μg/mL of SIRPα-V1-his, SIRPα-V2-his and SIRPα-V8-his (Sino Biological, Cat #30015-H08H) were coated overnight at 4° C. in Maxisorp ELISA 96-well plates. […] After washing, 100 μL of 1:5000 dilution of goat Anti-hIgG Fc HRP (Invitrogen, Cat #A18823) was added to each well and incubated for 1 h. TMB substrate was used for color development and enzyme marker readings.

Row | EC50 (read off the curve) | Binder
19 | ~0.05 nM | B3
20 | ~0.03 nM | B1
21 | ~0.03 nM | B2

Molecular target: T2, SIRPα-V8 on stably transfected cells
Assay: FACS titration on CHOZN-SIRPα-V8 cells, goat anti-hIgG-AF488 (panel SIRPα-V8)
Protocol: (§3) 2×10⁵ per well of stable transfer construct cell lines 293T-SIRPα-V1 (SEQ ID NO: 2), CHOZN-SIRPα-V2 (SEQ ID NO: 38), and CHOZN-SIRPα-V8 (SEQ ID NO: 39) in logarithmic phase were dispended in 96-well U-shaped culture plates, […] After washing, the cells were incubated with 0.2 μg of goat anti-hIgG-AF488 for 30 min at 4° C., then resuspended in 50 μL of DPBS/1% FBS and analyzed by flow cytometry with FlowJo V10 and GraphPad Prism6 software.

Row | EC50 (read off the curve) | Binder
22 | ~0.6 nM | B2

Molecular target: T6, SIRPα-V8-his (Sino Biological, Cat #30015-H08H)
T6 construct: The His tag belongs to the same chain; not shown: exact C-terminal limit of the vendor's construct
Assay: ELISA: coated SIRPα-V8-his, antibody titrated, goat anti-hIgG Fc HRP (panel SIRPα-V8)
Protocol: as §2

Row | EC50 (read off the curve) | Binder
23 | ~0.02 nM | B1
24 | ~0.02 nM | B2

Molecular target: T1, cynomolgus macaques SIRPα-his (ACRO, …)
Assay: ELISA: coated cynomolgus macaques SIRPα-his, antibody titrated, goat anti-hIgG Fc HRP (left panel)
Protocol: 100 μL of 1 μg/mL of cynomolgus macaques SIRPα-his were coated overnight at 4° C. in Maxisorp ELISA 96-well plates. […] After washing, each well was incubated with 100 μL of 1:5000-fold diluted goat anti-hIgG Fc HRP for 1 h at 37° C. and then substrate TMB, and read by an enzyme marker.

Row | EC50 (read off the curve) | Binder
25 | ~0.04 nM | B1
26 | ~0.04 nM | B2

Molecular target: T2, SIRPα-V8 on stably transfected cells
Assay: FACS titration on 293T-SIRPα-V8 cells, goat anti-hIgG-AF488 (panel SIRPα-V8)
Protocol: (§4) After washing, cells were stained by 0.2 μg of goat anti-hIgG-AF488 at 4° C. for 30 min, resuspended in […] of DPBS/1% FBS, and analyzed by FlowJo V10 and GraphPad Prism6 software.

Row | EC50 (read off the curve) | Binder
27 | ~0.8 nM | B1
28 | ~0.6 nM | B2

Molecular target: SIRPα-V2 on CHOZN-SIRPα-V2 cells (Homo sapiens (Human), UniProt P78324 31-504)
Assay: competition FACS: CHOZN-SIRPα-V2 cells, antibody titrated against CD47-FITC, % of blocking (panel SIRPα-V2-CD47)
Protocol: as §1

Row | IC50 (read off the curve) | Binder
29 | ~0.1 nM | B1
30 | ~0.2 nM | B2

Molecular target: T5, SIRPα-V1 on 293T-SIRPα-V1 cells
Assay: FACS titration on 293T-SIRPα-V1 cells, goat anti-hIgG-AF488 (panel SIRPα-V1)
Protocol: as §4

Row | EC50 (read off the curve) | Binder
31 | ~1 nM | B3
32 | ~0.5 nM | B1
33 | ~0.4 nM | B2

Molecular target: T5, SIRPα-V1 on 293T-SIRPα-V1 cells
Assay: as above
Remark: another data set of the same source
Protocol: as §3

Row | EC50 (read off the curve) | Binder
34 | ~3 nM | B2

Molecular target: T3, SIRPα V1-his (ACRO, Cat #SIA-H5225)
Assay: BLI (ForteBio Octet RED 96): SIRPα V1-his on Ni-NTA biosensor, antibody in a 1:2 series of 7 concentrations (row SIRPα-V1)
Protocol: 5 μg/mL SIRPα V1-his and SIRPα V2-his was loaded to a Ni-NTA biosensor for 600 s, respectively. […] The binding time was 200 s and the dissociation time was 600 s. The data were fitted to calculate the affinity.

Row | Kd | koff | Binder
35 | < 0.001 nM | < 1e-07 s⁻¹ | B3
36 | < 0.001 nM | < 1e-07 s⁻¹ | B1
37 | < 0.001 nM | < 1e-07 s⁻¹ | B2
